Experimental data: patent publication US11137400
Substitutions are numbered along the chain they refer to.

What was measured:
[1] = test system: T1, Affinity-purified GST-tagged wild type (WT) hXBP1s
T1 sequence: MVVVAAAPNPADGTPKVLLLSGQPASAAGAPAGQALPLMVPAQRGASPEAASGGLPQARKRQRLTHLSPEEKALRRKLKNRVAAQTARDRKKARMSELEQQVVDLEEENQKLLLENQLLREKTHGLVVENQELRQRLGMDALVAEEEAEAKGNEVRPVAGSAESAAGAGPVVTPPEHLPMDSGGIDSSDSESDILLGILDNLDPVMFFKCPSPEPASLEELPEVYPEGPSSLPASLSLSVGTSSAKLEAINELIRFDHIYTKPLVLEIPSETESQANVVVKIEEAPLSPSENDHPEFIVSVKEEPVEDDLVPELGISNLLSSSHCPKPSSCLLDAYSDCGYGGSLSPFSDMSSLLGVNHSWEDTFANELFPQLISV

[2] = test system: T2, Affinity-purified GST-tagged hXBP1s S288A mutant
T2 sequence: T1 sequence with S288A

In the case of “Active recombinant human JNK2α2 (Millipore)”, the “in vitro kinase assay, phosphorylation in the presence of ^32P (autoradiography)” value [1] is reported as “JNK1, JNK2 or JNK3 was sufficient to directly phosphorylate hXBP1s” and the “in vitro kinase assay, phosphorylation in the presence of ^32P (autoradiography)” value [2] is reported as “mutation of Ser288 to A abolished JNKs-mediated phosphorylation of hXBP1s”.
